In patent US20240189408A1, “COMPOSITIONS AND METHODS FOR REDUCING METHANE EMISSIONS IN RUMINANT POPULATIONS” (Arkea Bio Corp., priority 2022, published 2024):

Assays:
[1] = LNP size and polydispersity by DLS (Malvern Panalytical); type: physicochemical; conditions: mRNA LNPs of Table 18; for PDI: LNP polydispersity; for Z-avg.: LNP size
Protocol: (§1) To prepare lipid nanoparticles (LNPs), the mRNA stocks were thawed on ice. Nucleic acid concentrations were validated by absorbance at 260 nm using a NanoDrop. The mRNAs were then diluted to a final concentration of 0.35 mg/mL mRNA in Precision Nanosystem's dilution buffer. 10 mL of the dilute mRNAs were loaded into separate Luer lock syringes and all bubbles were removed by gentle tapping. A NanoAssemblr Ignite NxGen Cartridge was loaded into the cartridge slot of the Ignite instrument (FIG. 8A, 801) and one mRNA syringe was attached to the aqueous inlet of the cartridge. 3.3 mL of Genvoy-ILM reagent was loaded into a separate Luer lock syringes and all bubbles were removed by gentle tapping. The Genvoy-ILM syringe was then attached to the organic inlet of the cartridge. LNPs were then generated and collected into a 15 mL conical tube. The process was repeated for the remaining two mRNAs and for a buffer only LNP control (empty). Immediately after LNPs were generated, the samples were loaded into 10K dialysis cartridges, submerged into 1×DPBS (Ca^2+ and Mg^2+-free) to reduce the ethanol concentration to <0.5%. After dialysis the LNPs were recovered from the dialysis cartridges and sterile filtered at 0.2 um. Size and polydispersity (FIG. 8A, 802) were measured using a Malvern Panalytical DLS by diluting 40 uL of LNPs into 360 uL of 1×DPBS. […] Encapsulation efficiency was measured using a RiboGreen assay following Precision Nanosystems recommended protocol using a BioTek Synergy H1 Plate Reader. The resultant encapsulation efficiencies are shown in Table 14, with an average of ˜85%.
(§2) To prepare lipid nanoparticles (LNPs), the mRNA stocks were thawed on ice. Nucleic acid concentrations were validated by absorbance at 260 nm using a NanoDrop. The mRNAs were then diluted to a final concentration of 0.35 mg/mL mRNA in Precision Nanosystem's dilution buffer. 10 mL of the dilute mRNAs were loaded into separate Luer lock syringes and all bubbles were removed by gentle tapping. A NanoAssemblr Ignite NxGen Cartridge was loaded into the cartridge slot of the Ignite instrument and one mRNA syringe was attached to the aqueous inlet of the cartridge. 3.3 mL of Genvoy-ILM reagent was loaded into a separate Luer lock syringes and all bubbles were removed by gentle tapping. The Genvoy-LM syringe was then attached to the organic inlet of the cartridge. LNPs were then generated and collected into a 15 mL conical tube. The process was repeated for the remaining mRNAs and for a buffer only LNP control (empty). Immediately after LNPs were generated, the samples were loaded into 10K dialysis cartridges, submerged into Ix DPBS (Ca^2+ and Mg^2+-free) to reduce the ethanol concentration to <0.5%. After dialysis the LNPs were recovered from the dialysis cartridges and sterile filtered at 0.2 um. Size and polydispersity (FIG. 12 and FIG. 13) were measured using a Malvern Panalytical DLS by diluting 40 uL of LNPs into 360 uL of 1×DPBS. […] Encapsulation efficiency was measured using a RiboGreen assay following Precision Nanosystems recommended protocol using a BioTek Synergy H1 Plate Reader. The resultant encapsulation efficiencies are shown in Table 18, with an average of ˜60%.
(§3) To prepare lipid nanoparticles (LNPs), the mRNA stocks are thawed on ice. Nucleic acid concentrations are validated by absorbance at 260 nm using a NanoDrop. The mRNAs are then diluted to a final concentration of 0.35 mg/mL mRNA in Precision Nanosystem's dilution buffer. 10 mL of the dilute mRNAs are loaded into separate Luer lock syringes and all bubbles are removed by gentle tapping. A NanoAssemblr Ignite NxGen Cartridge is loaded into the cartridge slot of the Ignite instrument and one mRNA syringe is attached to the aqueous inlet of the cartridge. 3.3 mL of Genvoy-ILM reagent is loaded into a separate Luer lock syringes and all bubbles are removed by gentle tapping. The Genvoy-ILM syringe is then attached to the organic inlet of the cartridge. […]

[2] = LNP encapsulation efficiency, RiboGreen assay; type: physicochemical; conditions: mRNA LNPs of Table 18
Protocol: as §1, §2, §3

Row | Molecule | PDI [1] | Z-avg. [1] [nm·days] | Encapsulation efficiency [2] [%]
1 | ARK003: mRNA: SP + WP_019264904.1 (Methanobrevibacter smithii) + TM/C; SEQ ID NO: 16678 (nucleic acid, listed as DNA) ATGTTCGTGTTCCTCGTGCTCCTGCCCCTCGTCTCCAGCCAGTGCGTGTACCTCATGACCATACCACTGAACGGCACCCCACTCCACGCCTTCCCACTGCCACCCTGGTACATCTGGCTGGGCTTCATCGCAGGACTGATCGCCATCGTCATGGTCACCATAATGCTCTGTTGCATGACCTCCTGCTGTAGCTGCCTGAAAGGCTGTTGCAGCTGCGGGAGCTGCTGCAAATTCGACGAAGACGATAGCGAACCTGTGCTCAAAGGGGTGAAGTTGCATTACACATAGTGA | 0.118 | 78.82 | 40
2 | ARK004: mRNA: SP + WP_016359091.1 (Methanobrevibacter sp. AbM4) + TM/C; SEQ ID NO: 16679 (nucleic acid, listed as DNA) ATGTTCGTGTTCCTCGTGCTCCTGCCCCTCGTCTCCAGCCAGTGCGTGTACCTGATGATAATCCCAATCAACGGGAGTGCACTCCACATCTTCCCCCTCCCGCCCTGGTACATCTGGCTGGGCTTCATCGCAGGACTGATCGCCATCGTCATGGTCACCATAATGCTCTGTTGCATGACCTCCTGCTGTAGCTGCCTGAAAGGCTGTTGCAGCTGCGGGAGCTGCTGCAAATTCGACGAAGACGATAGCGAACCTGTGCTCAAAGGGGTGAAGTTGCATTACACATAGTGA | 0.108 | 78.82 | 51
3 | ARK005: mRNA: SP + WP_011033493.1 (Methanosarcina mazei) + TM/C; SEQ ID NO: 16680 (nucleic acid, listed as DNA) ATGTTCGTGTTCCTCGTGCTCCTGCCCCTCGTCTCCAGCCAGTGCGTGTACCTCATGACGGTGGTGCTCGGACACCCATTCCCGCTGACACCCTGGTACATCTGGCTGGGCTTCATCGCAGGACTGATCGCCATCGTCATGGTCACCATAATGCTCTGTTGCATGACCTCCTGCTGTAGCTGCCTGAAAGGCTGTTGCAGCTGCGGGAGCTGCTGCAAATTCGACGAAGACGATAGCGAACCTGTGCTCAAAGGGGTGAAGTTGCATTACACATAGTGA | 0.064 | 78.82 | 56
